Stoichiometry N (gp67 per Imp1) data for one substance are collected here from article doi:10.1101/2024.03.27.586873.

The assay concerns the target 6xHis-tagged Imp1 (ΦKZ gp69) (phage ΦKZ). The assay is described as follows: SEC + other: mass photometry.

As for “FLAG-tagged Imp6 (ΦKZ gp67) (natural protein)”, the stoichiometry N (gp67 per Imp1) is 2.
